According to PMC10962640, ““Clickable” graphene nanoribbons for biosensor interfaces†”:

Experiments:
Interleukin-6 (IL6) [1] = biological target: T1, Interleukin-6 (IL6) (human, UniProt P05231 30-212); experiment: EIS (electrochemical aptasensor); [Fe(CN)6]4- redox probe; phase shift; Hill fit, coefficient fixed at 1; Aptamer on GNR-functionalized gold electrodes, [Fe(CN)6]4- redox probe; sensing buffer, pH and temperature not given in the material (aptamer clicked in PBS 1X); settings: protein: commercial
Interleukin-6 (IL6) [2] = biological target: T1, Interleukin-6 (IL6); experiment: DPV (electrochemical aptasensor); [Fe(CN)6]4- redox probe; Hill fit, coefficient fixed at 1; Aptamer on GNR-functionalized gold electrodes, [Fe(CN)6]4- redox probe; sensing buffer, pH and temperature not given in the material (aptamer clicked in PBS 1X); settings: protein: commercial

T1 sequence (P05231 30-212): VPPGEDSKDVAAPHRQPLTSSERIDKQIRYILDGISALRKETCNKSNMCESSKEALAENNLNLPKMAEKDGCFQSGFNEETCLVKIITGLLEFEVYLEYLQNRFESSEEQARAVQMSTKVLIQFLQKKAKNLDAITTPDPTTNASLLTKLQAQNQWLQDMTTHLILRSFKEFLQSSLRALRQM

B1: IL6 DNA aptamer (azide-modified) (ssDNA)
DNA: TTTTTTCTTCCAACGCTCGTATTGTCAGTCTTTAGT
modifications: 5' azide (/5AzideN/), clicked by CuAAC to alkyne graphene nanoribbons on gold electrode
Kd (Interleukin-6 (IL6) [1]): 10.4 ± 3.1 nM
Kd (Interleukin-6 (IL6) [2]): 3.4 ± 0.4 nM
